# Source: PMC7614608 (Nature, 2023)
# B1: 10x-His-MBP-3C-ALYREFN (ALYREF residues 1-182) (domain or fragment)
# chain: not shown
# notes: also called MBP-ALYREFN; source: E. coli BL21 DE3 RIL, purified (HisTrap, cation exchange, Superdex 75); not shown: His10, N-terminal, kept; MBP, N-terminal, kept
# Target: T1, 6x-His-3C-EIF4A3 (human, UniProt P38919 1-411)
# T1 construct: EIF4A3, human, full length; source: E. coli BL21 DE3 RIL, purified (HisTrap, HiTrapQ, Superdex 75); not shown: His6, N-terminal, kept
# Experiment: pull-down; MBP-tagged bait (ALYREF constructs or CASC3 SELOR) mixed overnight at 4 °C with EIF4A3, Y14(66-154)–MAGOH, ssRNA and AMP-PNP in 25 mM HEPES pH 7.9, 50 mM NaCl, 5 mM MgCl2; held on amylose resin, maltose elution, SDS-PAGE with Coomassie
# Details: both partners purified
# T1 sequence (P38919 whole entry): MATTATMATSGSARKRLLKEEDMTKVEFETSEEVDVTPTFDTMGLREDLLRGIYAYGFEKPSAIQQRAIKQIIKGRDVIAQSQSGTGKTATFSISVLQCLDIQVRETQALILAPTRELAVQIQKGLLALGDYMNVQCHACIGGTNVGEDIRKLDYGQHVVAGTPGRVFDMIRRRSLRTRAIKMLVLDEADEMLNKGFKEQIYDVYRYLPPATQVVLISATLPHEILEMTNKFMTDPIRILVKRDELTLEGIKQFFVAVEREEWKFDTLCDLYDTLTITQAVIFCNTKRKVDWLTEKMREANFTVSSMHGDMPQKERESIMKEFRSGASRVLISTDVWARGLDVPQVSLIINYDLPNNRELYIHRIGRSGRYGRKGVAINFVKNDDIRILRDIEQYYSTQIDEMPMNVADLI
binder,measurement,value
B1,binding result,binds
